± gives the uncertainty stated by the source.

B1: RUN and FYVE domain-containing protein 1, residues 639 to 698; numbered along this chain, Q96T51 (parent)
chain: WLKDDEATHCRQCEKEFSISRRKHHCRNCGHIFCNTCSSNELALPSYPKPVRVCDSCHTL

This series covers variants of B1. As to the kind of experiment: abundance fitness (aPCA) (normalised: wild type 0, dead -1); higher = more abundant; growth selection in yeast, the domain comes from the species named. To be noted: Homo sapiens.
Regarding WLKDPEATHCRQCEKEFSISRRKHHCRNCGHIFCNTCSSNELALPSYPKPVRVCDSCHTL [D5P], the abundance fitness was -0.537 ± 0.067.

As to WLKDWEATHCRQCEKEFSISRRKHHCRNCGHIFCNTCSSNELALPSYPKPVRVCDSCHTL [D5W], the abundance fitness was -0.531 ± 0.055. Take WLKDSEATHCRQCEKEFSISRRKHHCRNCGHIFCNTCSSNELALPSYPKPVRVCDSCHTL [D5S]: the abundance fitness is -0.209 ± 0.039. The result for WLKDYEATHCRQCEKEFSISRRKHHCRNCGHIFCNTCSSNELALPSYPKPVRVCDSCHTL [D5Y] reads -0.258 ± 0.07; that for WLKDVEATHCRQCEKEFSISRRKHHCRNCGHIFCNTCSSNELALPSYPKPVRVCDSCHTL [D5V], -0.313 ± 0.047. WLKDGEATHCRQCEKEFSISRRKHHCRNCGHIFCNTCSSNELALPSYPKPVRVCDSCHTL [D5G]: the abundance fitness was -0.388 ± 0.042.

On to WLKDNEATHCRQCEKEFSISRRKHHCRNCGHIFCNTCSSNELALPSYPKPVRVCDSCHTL [D5N], for which the abundance fitness worked out at 0.004 ± 0.045. As for WLKDAEATHCRQCEKEFSISRRKHHCRNCGHIFCNTCSSNELALPSYPKPVRVCDSCHTL [D5A], the figure is -0.21 ± 0.055. On to WLKDIEATHCRQCEKEFSISRRKHHCRNCGHIFCNTCSSNELALPSYPKPVRVCDSCHTL [D5I], for which the abundance fitness is -0.341 ± 0.11. On to WLKDTEATHCRQCEKEFSISRRKHHCRNCGHIFCNTCSSNELALPSYPKPVRVCDSCHTL [D5T], for which the abundance fitness was -0.178 ± 0.058.

With WLKDEEATHCRQCEKEFSISRRKHHCRNCGHIFCNTCSSNELALPSYPKPVRVCDSCHTL [D5E], the abundance fitness was -0.134 ± 0.056. In the case of WLKDMEATHCRQCEKEFSISRRKHHCRNCGHIFCNTCSSNELALPSYPKPVRVCDSCHTL [D5M], the abundance fitness was 0.058 ± 0.044. Regarding WLKDREATHCRQCEKEFSISRRKHHCRNCGHIFCNTCSSNELALPSYPKPVRVCDSCHTL [D5R], the abundance fitness was -0.57 ± 0.043.

With WLKDLEATHCRQCEKEFSISRRKHHCRNCGHIFCNTCSSNELALPSYPKPVRVCDSCHTL [D5L], the abundance fitness is -0.547 ± 0.047. For WLKDQEATHCRQCEKEFSISRRKHHCRNCGHIFCNTCSSNELALPSYPKPVRVCDSCHTL [D5Q], the abundance fitness was -0.708 ± 0.069. As for WLKDKEATHCRQCEKEFSISRRKHHCRNCGHIFCNTCSSNELALPSYPKPVRVCDSCHTL [D5K], the abundance fitness is -0.069 ± 0.056. Regarding WLKDHEATHCRQCEKEFSISRRKHHCRNCGHIFCNTCSSNELALPSYPKPVRVCDSCHTL [D5H], the abundance fitness was -0.426 ± 0.12. As for WLKDCEATHCRQCEKEFSISRRKHHCRNCGHIFCNTCSSNELALPSYPKPVRVCDSCHTL [D5C], the figure is -0.17 ± 0.069; as for WLKDDAATHCRQCEKEFSISRRKHHCRNCGHIFCNTCSSNELALPSYPKPVRVCDSCHTL [E6A], -0.085 ± 0.043; as for WLKDDCATHCRQCEKEFSISRRKHHCRNCGHIFCNTCSSNELALPSYPKPVRVCDSCHTL [E6C], 0.009 ± 0.046. In the case of WHKDDEATHCRQCEKEFSISRRKHHCRNCGHIFCNTCSSNELALPSYPKPVRVCDSCHTL [L2H], the abundance fitness is -0.211 ± 0.095. As to WTKDDEATHCRQCEKEFSISRRKHHCRNCGHIFCNTCSSNELALPSYPKPVRVCDSCHTL [L2T], the abundance fitness is -0.02 ± 0.066. As to WAKDDEATHCRQCEKEFSISRRKHHCRNCGHIFCNTCSSNELALPSYPKPVRVCDSCHTL [L2A], the abundance fitness is 0.01 ± 0.077. As for WCKDDEATHCRQCEKEFSISRRKHHCRNCGHIFCNTCSSNELALPSYPKPVRVCDSCHTL [L2C], the figure is -0.327 ± 0.069; as for WDKDDEATHCRQCEKEFSISRRKHHCRNCGHIFCNTCSSNELALPSYPKPVRVCDSCHTL [L2D], -0.006 ± 0.093. Regarding WKKDDEATHCRQCEKEFSISRRKHHCRNCGHIFCNTCSSNELALPSYPKPVRVCDSCHTL [L2K], the abundance fitness came out at 0.102 ± 0.071. As for WFKDDEATHCRQCEKEFSISRRKHHCRNCGHIFCNTCSSNELALPSYPKPVRVCDSCHTL [L2F], the figure is -0.061 ± 0.043; as for WYKDDEATHCRQCEKEFSISRRKHHCRNCGHIFCNTCSSNELALPSYPKPVRVCDSCHTL [L2Y], 0.058 ± 0.057; as for WIKDDEATHCRQCEKEFSISRRKHHCRNCGHIFCNTCSSNELALPSYPKPVRVCDSCHTL [L2I], -0.104 ± 0.1. Regarding WVKDDEATHCRQCEKEFSISRRKHHCRNCGHIFCNTCSSNELALPSYPKPVRVCDSCHTL [L2V], the abundance fitness is -0.044 ± 0.064. As for WWKDDEATHCRQCEKEFSISRRKHHCRNCGHIFCNTCSSNELALPSYPKPVRVCDSCHTL [L2W], the abundance fitness was -0.329 ± 0.066. Turning to WMKDDEATHCRQCEKEFSISRRKHHCRNCGHIFCNTCSSNELALPSYPKPVRVCDSCHTL [L2M], the abundance fitness is -0.074 ± 0.065. For WGKDDEATHCRQCEKEFSISRRKHHCRNCGHIFCNTCSSNELALPSYPKPVRVCDSCHTL [L2G], the abundance fitness was -0.074 ± 0.12. WPKDDEATHCRQCEKEFSISRRKHHCRNCGHIFCNTCSSNELALPSYPKPVRVCDSCHTL [L2P]: the abundance fitness was -1.13 ± 0.17. As for WRKDDEATHCRQCEKEFSISRRKHHCRNCGHIFCNTCSSNELALPSYPKPVRVCDSCHTL [L2R], the figure is -0.393 ± 0.07.

As to WQKDDEATHCRQCEKEFSISRRKHHCRNCGHIFCNTCSSNELALPSYPKPVRVCDSCHTL [L2Q], the abundance fitness is -0.023 ± 0.076.

Turning to WLKGDEATHCRQCEKEFSISRRKHHCRNCGHIFCNTCSSNELALPSYPKPVRVCDSCHTL [D4G], the abundance fitness is -0.228 ± 0.056. Turning to WLKKDEATHCRQCEKEFSISRRKHHCRNCGHIFCNTCSSNELALPSYPKPVRVCDSCHTL [D4K], the abundance fitness was -0.068 ± 0.06. As for WLKYDEATHCRQCEKEFSISRRKHHCRNCGHIFCNTCSSNELALPSYPKPVRVCDSCHTL [D4Y], the figure is -0.18 ± 0.064. Turning to WLKNDEATHCRQCEKEFSISRRKHHCRNCGHIFCNTCSSNELALPSYPKPVRVCDSCHTL [D4N], the abundance fitness is -0.018 ± 0.044. Consider WLKTDEATHCRQCEKEFSISRRKHHCRNCGHIFCNTCSSNELALPSYPKPVRVCDSCHTL [D4T], for which the abundance fitness was -0.27 ± 0.05.

With WLKEDEATHCRQCEKEFSISRRKHHCRNCGHIFCNTCSSNELALPSYPKPVRVCDSCHTL [D4E], the abundance fitness is -0.156 ± 0.059.

As to WLKADEATHCRQCEKEFSISRRKHHCRNCGHIFCNTCSSNELALPSYPKPVRVCDSCHTL [D4A], the abundance fitness was -0.466 ± 0.069. WLKLDEATHCRQCEKEFSISRRKHHCRNCGHIFCNTCSSNELALPSYPKPVRVCDSCHTL [D4L]: the abundance fitness is -0.298 ± 0.039.

For the origin of these results see the Human Domainome abundance scans (Beltran et al. 2025).
